Key:
[1] = molecular target: binding partner of C5A (XPA23); test: Biacore
[2] = molecular target: binding partner of C5A (XPA23); test: Biacore, K-off
[3] = molecular target: binding partner (antigen) of C5A (XPA23); test: Biacore, K-off, fold vs original

Binder | fold affinity vs original [1] | fold difference in affinity vs original [2] | fold difference in affinity vs original [1] | fold difference in affinity vs original [3]
C5A (XPA23) VH F35G (antibody, V domains shown) VH: EVQLLESGGGLVQPGGSLRLSCAASGFTFSKYFMGWVRQAPGKGLEWVSVISPSGGMTRYADSVKGRFTISRDNSKNTLYLQMNSLRAEDTAVYYCARVGYGGNSDYWGQGTLVTVSS VL: DIQMTQSPSSVSASVGDRLTIICRASQDINRWLAWYQQTPGNAPKLLIHSATSLQSGVPSRFSGSGSGTDFTLTINSLQPEDFATYYCQQADSFPLTFGGGTKVEIK |  |  | 0.04 fold | 0.04 fold
C5A (XPA23) VH F35I (antibody, V domains shown) VH: EVQLLESGGGLVQPGGSLRLSCAASGFTFSKYFMIWVRQAPGKGLEWVSVISPSGGMTRYADSVKGRFTISRDNSKNTLYLQMNSLRAEDTAVYYCARVGYGGNSDYWGQGTLVTVSS VL: DIQMTQSPSSVSASVGDRLTIICRASQDINRWLAWYQQTPGNAPKLLIHSATSLQSGVPSRFSGSGSGTDFTLTINSLQPEDFATYYCQQADSFPLTFGGGTKVEIK |  |  | 0.85 fold | 0.85 fold
C5A (XPA23) VH F35A (antibody, V domains shown) VH: EVQLLESGGGLVQPGGSLRLSCAASGFTFSKYFMAWVRQAPGKGLEWVSVISPSGGMTRYADSVKGRFTISRDNSKNTLYLQMNSLRAEDTAVYYCARVGYGGNSDYWGQGTLVTVSS VL: DIQMTQSPSSVSASVGDRLTIICRASQDINRWLAWYQQTPGNAPKLLIHSATSLQSGVPSRFSGSGSGTDFTLTINSLQPEDFATYYCQQADSFPLTFGGGTKVEIK |  |  | 0.07 fold | 0.07 fold
C5A (XPA23) VH Y107E (antibody, V domains shown) VH: EVQLLESGGGLVQPGGSLRLSCAASGFTFSKYFMFWVRQAPGKGLEWVSVISPSGGMTRYADSVKGRFTISRDNSKNTLYLQMNSLRAEDTAVYYCARVGYGGNSDEWGQGTLVTVSS VL: DIQMTQSPSSVSASVGDRLTIICRASQDINRWLAWYQQTPGNAPKLLIHSATSLQSGVPSRFSGSGSGTDFTLTINSLQPEDFATYYCQQADSFPLTFGGGTKVEIK | 0.9 fold | 0.9 fold |  | 
C5A (XPA23) VH F35V (antibody, V domains shown) VH: EVQLLESGGGLVQPGGSLRLSCAASGFTFSKYFMVWVRQAPGKGLEWVSVISPSGGMTRYADSVKGRFTISRDNSKNTLYLQMNSLRAEDTAVYYCARVGYGGNSDYWGQGTLVTVSS VL: DIQMTQSPSSVSASVGDRLTIICRASQDINRWLAWYQQTPGNAPKLLIHSATSLQSGVPSRFSGSGSGTDFTLTINSLQPEDFATYYCQQADSFPLTFGGGTKVEIK |  |  | 0.89 fold | 0.89 fold
C5A (XPA23) VH Y107S (antibody, V domains shown) VH: EVQLLESGGGLVQPGGSLRLSCAASGFTFSKYFMFWVRQAPGKGLEWVSVISPSGGMTRYADSVKGRFTISRDNSKNTLYLQMNSLRAEDTAVYYCARVGYGGNSDSWGQGTLVTVSS VL: DIQMTQSPSSVSASVGDRLTIICRASQDINRWLAWYQQTPGNAPKLLIHSATSLQSGVPSRFSGSGSGTDFTLTINSLQPEDFATYYCQQADSFPLTFGGGTKVEIK | 0.89 fold | 0.89 fold |  | 
C5A (XPA23) VH V50L (antibody, V domains shown) VH: EVQLLESGGGLVQPGGSLRLSCAASGFTFSKYFMFWVRQAPGKGLEWVSLISPSGGMTRYADSVKGRFTISRDNSKNTLYLQMNSLRAEDTAVYYCARVGYGGNSDYWGQGTLVTVSS VL: DIQMTQSPSSVSASVGDRLTIICRASQDINRWLAWYQQTPGNAPKLLIHSATSLQSGVPSRFSGSGSGTDFTLTINSLQPEDFATYYCQQADSFPLTFGGGTKVEIK |  |  | 0.09 fold | 0.09 fold
C5A (XPA23) VH V50G (antibody, V domains shown) VH: EVQLLESGGGLVQPGGSLRLSCAASGFTFSKYFMFWVRQAPGKGLEWVSGISPSGGMTRYADSVKGRFTISRDNSKNTLYLQMNSLRAEDTAVYYCARVGYGGNSDYWGQGTLVTVSS VL: DIQMTQSPSSVSASVGDRLTIICRASQDINRWLAWYQQTPGNAPKLLIHSATSLQSGVPSRFSGSGSGTDFTLTINSLQPEDFATYYCQQADSFPLTFGGGTKVEIK |  |  | 0.03 fold | 0.03 fold
C5A (XPA23) VH Y107D (antibody, V domains shown) VH: EVQLLESGGGLVQPGGSLRLSCAASGFTFSKYFMFWVRQAPGKGLEWVSVISPSGGMTRYADSVKGRFTISRDNSKNTLYLQMNSLRAEDTAVYYCARVGYGGNSDDWGQGTLVTVSS VL: DIQMTQSPSSVSASVGDRLTIICRASQDINRWLAWYQQTPGNAPKLLIHSATSLQSGVPSRFSGSGSGTDFTLTINSLQPEDFATYYCQQADSFPLTFGGGTKVEIK | 0.85 fold | 0.85 fold |  | 

Second part, the binder after the results:

fold affinity vs original [1] | fold difference in affinity vs original [2] | fold difference in affinity vs original [1] | fold difference in affinity vs original [3] | Binder
0.02 fold | 0.02 fold |  |  | C5A (XPA23) VH D106Q (antibody, V domains shown) VH: EVQLLESGGGLVQPGGSLRLSCAASGFTFSKYFMFWVRQAPGKGLEWVSVISPSGGMTRYADSVKGRFTISRDNSKNTLYLQMNSLRAEDTAVYYCARVGYGGNSQYWGQGTLVTVSS VL: DIQMTQSPSSVSASVGDRLTIICRASQDINRWLAWYQQTPGNAPKLLIHSATSLQSGVPSRFSGSGSGTDFTLTINSLQPEDFATYYCQQADSFPLTFGGGTKVEIK
0.82 fold | 0.82 fold |  |  | C5A (XPA23) VH Y107K (antibody, V domains shown) VH: EVQLLESGGGLVQPGGSLRLSCAASGFTFSKYFMFWVRQAPGKGLEWVSVISPSGGMTRYADSVKGRFTISRDNSKNTLYLQMNSLRAEDTAVYYCARVGYGGNSDKWGQGTLVTVSS VL: DIQMTQSPSSVSASVGDRLTIICRASQDINRWLAWYQQTPGNAPKLLIHSATSLQSGVPSRFSGSGSGTDFTLTINSLQPEDFATYYCQQADSFPLTFGGGTKVEIK
 |  | 0.06 fold | 0.06 fold | C5A (XPA23) VH F35P (antibody, V domains shown) VH: EVQLLESGGGLVQPGGSLRLSCAASGFTFSKYFMPWVRQAPGKGLEWVSVISPSGGMTRYADSVKGRFTISRDNSKNTLYLQMNSLRAEDTAVYYCARVGYGGNSDYWGQGTLVTVSS VL: DIQMTQSPSSVSASVGDRLTIICRASQDINRWLAWYQQTPGNAPKLLIHSATSLQSGVPSRFSGSGSGTDFTLTINSLQPEDFATYYCQQADSFPLTFGGGTKVEIK
 | 0.83 fold | 0.83 fold |  | C5A (XPA23) VH Y107T (antibody, V domains shown) VH: EVQLLESGGGLVQPGGSLRLSCAASGFTFSKYFMFWVRQAPGKGLEWVSVISPSGGMTRYADSVKGRFTISRDNSKNTLYLQMNSLRAEDTAVYYCARVGYGGNSDTWGQGTLVTVSS VL: DIQMTQSPSSVSASVGDRLTIICRASQDINRWLAWYQQTPGNAPKLLIHSATSLQSGVPSRFSGSGSGTDFTLTINSLQPEDFATYYCQQADSFPLTFGGGTKVEIK
 |  | 0.78 fold | 0.78 fold | C5A (XPA23) VH F35L (antibody, V domains shown) VH: EVQLLESGGGLVQPGGSLRLSCAASGFTFSKYFMLWVRQAPGKGLEWVSVISPSGGMTRYADSVKGRFTISRDNSKNTLYLQMNSLRAEDTAVYYCARVGYGGNSDYWGQGTLVTVSS VL: DIQMTQSPSSVSASVGDRLTIICRASQDINRWLAWYQQTPGNAPKLLIHSATSLQSGVPSRFSGSGSGTDFTLTINSLQPEDFATYYCQQADSFPLTFGGGTKVEIK
 |  | 0.94 fold | 0.94 fold | C5A (XPA23) VH I51G (antibody, V domains shown) VH: EVQLLESGGGLVQPGGSLRLSCAASGFTFSKYFMFWVRQAPGKGLEWVSVGSPSGGMTRYADSVKGRFTISRDNSKNTLYLQMNSLRAEDTAVYYCARVGYGGNSDYWGQGTLVTVSS VL: DIQMTQSPSSVSASVGDRLTIICRASQDINRWLAWYQQTPGNAPKLLIHSATSLQSGVPSRFSGSGSGTDFTLTINSLQPEDFATYYCQQADSFPLTFGGGTKVEIK
 |  | 0.1 fold | 0.1 fold | C5A (XPA23) VH V50I (antibody, V domains shown) VH: EVQLLESGGGLVQPGGSLRLSCAASGFTFSKYFMFWVRQAPGKGLEWVSIISPSGGMTRYADSVKGRFTISRDNSKNTLYLQMNSLRAEDTAVYYCARVGYGGNSDYWGQGTLVTVSS VL: DIQMTQSPSSVSASVGDRLTIICRASQDINRWLAWYQQTPGNAPKLLIHSATSLQSGVPSRFSGSGSGTDFTLTINSLQPEDFATYYCQQADSFPLTFGGGTKVEIK
 |  | 0.09 fold | 0.09 fold | C5A (XPA23) VH V50A (antibody, V domains shown) VH: EVQLLESGGGLVQPGGSLRLSCAASGFTFSKYFMFWVRQAPGKGLEWVSAISPSGGMTRYADSVKGRFTISRDNSKNTLYLQMNSLRAEDTAVYYCARVGYGGNSDYWGQGTLVTVSS VL: DIQMTQSPSSVSASVGDRLTIICRASQDINRWLAWYQQTPGNAPKLLIHSATSLQSGVPSRFSGSGSGTDFTLTINSLQPEDFATYYCQQADSFPLTFGGGTKVEIK
 |  | 1.04 fold | 1.04 fold | C5A (XPA23) VH I51A (antibody, V domains shown) VH: EVQLLESGGGLVQPGGSLRLSCAASGFTFSKYFMFWVRQAPGKGLEWVSVASPSGGMTRYADSVKGRFTISRDNSKNTLYLQMNSLRAEDTAVYYCARVGYGGNSDYWGQGTLVTVSS VL: DIQMTQSPSSVSASVGDRLTIICRASQDINRWLAWYQQTPGNAPKLLIHSATSLQSGVPSRFSGSGSGTDFTLTINSLQPEDFATYYCQQADSFPLTFGGGTKVEIK
0.85 fold | 0.85 fold |  |  | C5A (XPA23) VH Y107R (antibody, V domains shown) VH: EVQLLESGGGLVQPGGSLRLSCAASGFTFSKYFMFWVRQAPGKGLEWVSVISPSGGMTRYADSVKGRFTISRDNSKNTLYLQMNSLRAEDTAVYYCARVGYGGNSDRWGQGTLVTVSS VL: DIQMTQSPSSVSASVGDRLTIICRASQDINRWLAWYQQTPGNAPKLLIHSATSLQSGVPSRFSGSGSGTDFTLTINSLQPEDFATYYCQQADSFPLTFGGGTKVEIK
0.87 fold | 0.87 fold |  |  | C5A (XPA23) VH Y107Q (antibody, V domains shown) VH: EVQLLESGGGLVQPGGSLRLSCAASGFTFSKYFMFWVRQAPGKGLEWVSVISPSGGMTRYADSVKGRFTISRDNSKNTLYLQMNSLRAEDTAVYYCARVGYGGNSDQWGQGTLVTVSS VL: DIQMTQSPSSVSASVGDRLTIICRASQDINRWLAWYQQTPGNAPKLLIHSATSLQSGVPSRFSGSGSGTDFTLTINSLQPEDFATYYCQQADSFPLTFGGGTKVEIK

Reference: US20110118447A1
